From patent US20240409645A1 (DUALYX, published 2024)
Where a chain is given by its changes, count along the chain named. One block for each binder: values may come before it.

Assays:
mouse IL-2Rγ [1] = target: T1, mouse IL-2Rγ (mouse, UniProt P34902 23-263); experiment: PE binding ELISA, periplasmic extract on coated protein
T1 construct: also called mo IL-2R
T1 sequence (looked up): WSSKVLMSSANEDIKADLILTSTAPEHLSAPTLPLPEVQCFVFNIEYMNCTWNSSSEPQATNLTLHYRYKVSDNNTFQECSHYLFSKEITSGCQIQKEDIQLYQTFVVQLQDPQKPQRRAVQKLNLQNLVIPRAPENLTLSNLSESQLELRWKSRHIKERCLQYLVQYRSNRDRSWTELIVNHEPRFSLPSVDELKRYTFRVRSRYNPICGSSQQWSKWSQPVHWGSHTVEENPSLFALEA
Method in brief: (§1)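 Plates were coated overnight at 4° C with human or mouse IL-2R chain protein, and free sites blocked for 1 hour in 4% Marvel in PBS. Periplasmic extracts diluted 1:5 in 1% Marvel/PBS then bound for 1 hour, with specificity assessed from 450 nm absorbance relative to negative controls.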

[2] = target: T2, human IL-2Rγ (common cytokine receptor γ-chain) (human, UniProt P31785 23-262, limits assumed); experiment: as above
T2 construct: Recombinant protein coated on the plate or immobilised on a CM5 chip; also called hu IL-2R; CD132
T2 sequence: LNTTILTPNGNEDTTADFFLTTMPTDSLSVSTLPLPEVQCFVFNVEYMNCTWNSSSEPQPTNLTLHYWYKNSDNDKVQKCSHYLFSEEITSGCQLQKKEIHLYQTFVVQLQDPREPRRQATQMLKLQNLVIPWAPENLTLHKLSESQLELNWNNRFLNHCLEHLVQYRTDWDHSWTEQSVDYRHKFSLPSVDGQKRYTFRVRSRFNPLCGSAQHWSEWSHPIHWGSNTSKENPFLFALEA
Method in brief: as §1

mouse IL-2Rγ [3] = target: T1, mouse IL-2Rγ; experiment: SPR off-rate ranking, periplasmic extract on immobilised protein
Method in brief: (§2)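 First, the IL-2R protein is immobilised via amine coupling in acetate buffer to roughly 2500 RU on a CM5 sensor chip. Next, the VHH extract is loaded at 30 uL/min. Finally, dissociation is recorded for 120s.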

[4] = target: T2, human IL-2Rγ (common cytokine receptor …); experiment: as above
Method in brief: as §2

mouse IL-2Rα [5] = target: T3, mouse IL-2Rα (mouse, UniProt P01590 22-236, limits assumed); experiment: ELISA, P.E. on coated antigen
T3 construct: recombinant protein; also called mo IL-2R; mouse IL-2Ra
T3 sequence (looked up): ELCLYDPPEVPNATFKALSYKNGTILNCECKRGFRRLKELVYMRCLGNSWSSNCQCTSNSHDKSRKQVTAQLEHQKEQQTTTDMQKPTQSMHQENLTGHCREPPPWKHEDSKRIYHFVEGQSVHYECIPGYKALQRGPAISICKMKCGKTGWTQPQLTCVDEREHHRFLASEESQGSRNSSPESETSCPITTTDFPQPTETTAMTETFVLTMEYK
Method in brief: as §1

human IL-2Rα [6] = target: T4, human IL-2Rα (human, UniProt P01589 22-240, limits assumed); experiment: ELISA, P.E. on coated antigen
T4 construct: recombinant protein; also called hu IL-2R; human IL-2Ra
T4 sequence: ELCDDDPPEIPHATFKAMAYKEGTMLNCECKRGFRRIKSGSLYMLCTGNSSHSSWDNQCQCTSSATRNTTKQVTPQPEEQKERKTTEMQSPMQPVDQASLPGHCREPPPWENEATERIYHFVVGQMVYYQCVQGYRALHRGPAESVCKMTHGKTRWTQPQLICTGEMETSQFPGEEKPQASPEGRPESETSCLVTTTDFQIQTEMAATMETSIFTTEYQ
Method in brief: as §1

mouse IL-2Rα [7] = target: T3, mouse IL-2Rα; experiment: SPR, P.E. on immobilised antigen
Method in brief: as §2

human IL-2Rα [8] = target: T4, human IL-2Rα; experiment: SPR, P.E. on immobilised antigen
Method in brief: as §2

OD (PE binding ELISA) (mouse IL-2Rγ [1]): 0.08 OD450 nm
OD (PE binding ELISA) [2]: 1.57 OD450 nm
koff (mouse IL-2Rγ [3]): 0.108 s⁻¹
koff [4]: 0.00273 s⁻¹
B1: FJ1427_P035MP04H05 (VHH)
VHH: QVQLVESGGGLVQAGGSLRLSCAASGRTLSRYAMGWFRQAPGKEREFVTANSWGGDTYYADSVQGRFTFSRDNAKNTVYLQMNSLQPEDTAVYYCAAAPTSFATTAYSSSNSYAYWGQGTQVTVSS
notes: VHH in periplasmic extract; also called clone nr

OD (PE binding ELISA) (mouse IL-2Rγ [1]): 0.077 OD450 nm
OD (PE binding ELISA) [2]: 1.26 OD450 nm
koff (mouse IL-2Rγ [3]): 0.12 s⁻¹
koff [4]: 0.00139 s⁻¹
B2: FJ1427_P035MP04D10 (VHH)
VHH: B1 VHH
notes: VHH in periplasmic extract; also called clone nr; 364

OD (PE binding ELISA) (mouse IL-2Rγ [1]): 0.078 OD450 nm
OD (PE binding ELISA) [2]: 1.23 OD450 nm
koff (mouse IL-2Rγ [3]): 0.122 s⁻¹
koff [4]: 0.00197 s⁻¹
B3: FJ1427_P035MP04E08 (VHH)
VHH: B1 VHH
notes: as for B1

OD (PE binding ELISA) (mouse IL-2Rγ [1]): 0.076 OD450 nm
OD (PE binding ELISA) [2]: 0.919 OD450 nm
koff (mouse IL-2Rγ [3]): 0.101 s⁻¹
koff [4]: 0.00154 s⁻¹
B4: FJ1427_P035MP04H07 (VHH)
VHH: B1 VHH with V2L
notes: as for B1

OD (PE binding ELISA) (mouse IL-2Rα [5]): 0.046 OD450 nm
OD (PE binding ELISA) (human IL-2Rα [6]): 2.49 OD450 nm
koff (mouse IL-2Rα [7]): 0.256 s⁻¹
koff (human IL-2Rα [8]): 0.000258 s⁻¹
B5: 4-MP01F04 (VHH)
VHH: QVQLVESGGGLVQAGGSLRLSCAASGGTFRTRNMGWFRRAPGKEREFVAAVSWNVDNKLYADSVKGRFTISRDNGRNMVYLQMNSLKPEDTAVYYCAADNIPLSSDMRPTATEYDYWGQGTQVTVSS
notes: periplasmic extract; also called FJ1427_P035MP01F04

OD (PE binding ELISA) (mouse IL-2Rα [5]): 0.046 OD450 nm
OD (PE binding ELISA) (human IL-2Rα [6]): 2.38 OD450 nm
koff (mouse IL-2Rα [7]): 0.196 s⁻¹
koff (human IL-2Rα [8]): 0.00158 s⁻¹
B6: FJ1427_P035MP05E04 (VHH)
VHH: B5 VHH with N54S, D62G, Y114F, D115G, Q122R
notes: periplasmic extract; also called clone nr

OD (PE binding ELISA) (mouse IL-2Rα [5]): 0.24 OD450 nm
OD (PE binding ELISA) (human IL-2Rα [6]): 2.18 OD450 nm
koff (mouse IL-2Rα [7]): 0.00321 s⁻¹
koff (human IL-2Rα [8]): 0.0012 s⁻¹
B7: FJ1427_P035MP05A10 (VHH)
VHH: QLQLVESGGGLVQAGGSLRLSCTASGLTFDGYAIGWFRQAPGKEREGVSYITGSDGSTYYIDSVKGRFTISSDIAKSTVYLQMNSLKPEDTAVYYCAVDRLGSRGLYASSWWRSGDMDLWGKGTLVTVSS
notes: as for B6

OD (PE binding ELISA) (mouse IL-2Rα [5]): 0.632 OD450 nm
OD (PE binding ELISA) (human IL-2Rα [6]): 2.14 OD450 nm
koff (mouse IL-2Rα [7]): 0.000844 s⁻¹
koff (human IL-2Rα [8]): 0.00044 s⁻¹
B8: FJ1427_P035MP05C11 (VHH)
VHH: B7 VHH with L2V, D30E, G56A, I74F, S85N, L106G
notes: as for B6

OD (PE binding ELISA) (mouse IL-2Rα [5]): 0.163 OD450 nm
OD (PE binding ELISA) (human IL-2Rα [6]): 2.22 OD450 nm
koff (mouse IL-2Rα [7]): 0.00163 s⁻¹
koff (human IL-2Rα [8]): 0.0012 s⁻¹
B9: 11-MP05H04 (VHH)
VHH: B7 VHH with T23A, D30E, S57T, D62N, I74N, S85T, R104Q, L106R, S110A, L125Q
notes: periplasmic extract; also called FJ1427_P035MP05H04

OD (PE binding ELISA) (mouse IL-2Rα [5]): 0.107 OD450 nm
OD (PE binding ELISA) (human IL-2Rα [6]): 2.09 OD450 nm
koff (mouse IL-2Rα [7]): 0.00284 s⁻¹
koff (human IL-2Rα [8]): 0.00108 s⁻¹
B10: FJ1427_P035MP05D10 (VHH)
VHH: B7 VHH with L2V, I61R, I74N, S85T
notes: periplasmic extract; also called clone nr; 460

OD (PE binding ELISA) (mouse IL-2Rα [5]): 0.38 OD450 nm
OD (PE binding ELISA) (human IL-2Rα [6]): 2.39 OD450 nm
koff (mouse IL-2Rα [7]): 0.00258 s⁻¹
koff (human IL-2Rα [8]): 0.000908 s⁻¹
B11: FJ1427_P035MP05G08 (VHH)
VHH: B7 VHH with D30E, G56A, I74F, S85N, L106G
notes: as for B6

OD (PE binding ELISA) (mouse IL-2Rα [5]): 0.154 OD450 nm
OD (PE binding ELISA) (human IL-2Rα [6]): 2.26 OD450 nm
koff (mouse IL-2Rα [7]): 0.00244 s⁻¹
koff (human IL-2Rα [8]): 0.00105 s⁻¹
B12: FJ1427_P035MP05H09 (VHH)
VHH: B7 VHH with G10D, A14P, D55N, S85T
notes: as for B6

OD (PE binding ELISA) (mouse IL-2Rα [5]): 0.718 OD450 nm
OD (PE binding ELISA) (human IL-2Rα [6]): 2.27 OD450 nm
koff (mouse IL-2Rα [7]): 0.00177 s⁻¹
koff (human IL-2Rα [8]): 0.00169 s⁻¹
B13: FJ1427_P035MP05E10 (VHH)
VHH: B7 VHH with Q1E, L2V
notes: as for B6
